# Source: paper PMC7782513, “Structural basis for nuclear import selectivity of pioneer transcription factor SOX2” (Nature Communications, 2021)
# T1: IMPα3 lacking the IMPβ-binding domain (residues 64-521) (human, UniProt O00629 64-521)
# T1 sequence (looked up): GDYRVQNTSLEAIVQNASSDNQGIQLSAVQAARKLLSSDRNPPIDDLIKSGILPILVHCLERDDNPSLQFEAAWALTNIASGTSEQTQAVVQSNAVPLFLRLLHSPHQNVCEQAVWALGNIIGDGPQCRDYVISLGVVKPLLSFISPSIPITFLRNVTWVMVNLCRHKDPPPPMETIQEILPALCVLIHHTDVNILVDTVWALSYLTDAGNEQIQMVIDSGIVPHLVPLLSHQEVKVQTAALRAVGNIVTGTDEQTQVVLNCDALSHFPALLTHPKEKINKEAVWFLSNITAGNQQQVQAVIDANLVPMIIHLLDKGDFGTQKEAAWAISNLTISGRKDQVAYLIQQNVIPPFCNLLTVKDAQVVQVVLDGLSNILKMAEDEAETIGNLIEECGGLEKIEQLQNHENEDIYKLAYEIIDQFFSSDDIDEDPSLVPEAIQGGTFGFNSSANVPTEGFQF
# B1: His-tagged SOX2 HMG domain (residues 39-127), wild type (domain or fragment)
# chain: not shown
# notes: SOX2 HMG domain, human, residues 39-127 of UniProtKB P48431; pET30a+ construct with a TEV site (ENLYFQS) between tag and SOX2; in MST the labelled SOX2 carries the RED-tris-NTA dye of the his-tag labelling kit; also called SOX2 WT; source: E. coli BL21 (DE3) pLysS, purified (HisTrap, SEC); not shown: His6, N-terminal, kept
# B2: His-tagged SOX2 K42A (domain or fragment)
# chain: not shown
# notes: SOX2 HMG domain, human, residues 39-127 of UniProtKB P48431, with K42A; source: E. coli, recombinant, purified; not shown: His6, N-terminal, kept
# B3: His-tagged SOX2 R57A (domain or fragment)
# chain: not shown
# notes: SOX2 HMG domain, human, residues 39-127 of UniProtKB P48431, with R57A; source: E. coli, recombinant, purified; not shown: His6, N-terminal, kept
# B4: His-tagged SOX2 R98A (domain or fragment)
# chain: not shown
# notes: SOX2 HMG domain, human, residues 39-127 of UniProtKB P48431, with R98A; source: E. coli, recombinant, purified; not shown: His6, N-terminal, kept
# B5: His-tagged SOX2 R43A (domain or fragment)
# chain: not shown
# notes: SOX2 HMG domain, human, residues 39-127 of UniProtKB P48431, with R43A; also called R43A-SOX2; source: E. coli, recombinant, purified; not shown: His6, N-terminal, kept
# B6: His-tagged SOX2 K117A (domain or fragment)
# chain: not shown
# notes: SOX2 HMG domain, human, residues 39-127 of UniProtKB P48431, with K117A; source: E. coli, recombinant, purified; not shown: His6, N-terminal, kept
# B7: His-tagged SOX2 T116E (to mimic phosphorylation) (domain or fragment)
# chain: not shown
# notes: SOX2 HMG domain, human, residues 39-127 of UniProtKB P48431, with T116E; source: E. coli, recombinant, purified; not shown: His6, N-terminal, kept
# B8: His-tagged SOX2 R113A (domain or fragment)
# chain: not shown
# notes: SOX2 HMG domain, human, residues 39-127 of UniProtKB P48431, with R113A; source: E. coli, recombinant, purified; not shown: His6, N-terminal, kept
# B9: His-tagged SOX2 R40A (domain or fragment)
# chain: not shown
# notes: SOX2 HMG domain, human, residues 39-127 of UniProtKB P48431, with R40A; source: E. coli, recombinant, purified; not shown: His6, N-terminal, kept
# B10: His-tagged SOX2 R114A (domain or fragment)
# chain: not shown
# notes: SOX2 HMG domain, human, residues 39-127 of UniProtKB P48431, with R114A; source: E. coli, recombinant, purified; not shown: His6, N-terminal, kept
# B11: His-tagged SOX2 R56A (domain or fragment)
# chain: not shown
# notes: SOX2 HMG domain, human, residues 39-127 of UniProtKB P48431, with R56A; source: E. coli, recombinant, purified; not shown: His6, N-terminal, kept
# B12: His-tagged SOX2 K115A (domain or fragment)
# chain: not shown
# notes: SOX2 HMG domain, human, residues 39-127 of UniProtKB P48431, with K115A; source: E. coli, recombinant, purified; not shown: His6, N-terminal, kept
# Target: T1, IMPα3 lacking the IMPβ-binding domain …
# Assay: MST; labelled SOX2 at 50 nM (his-tag labelling kit RED-tris-NTA), unlabelled importins titrated; 20 mM HEPES, 150 mM NaCl, pH 8.0; 25 °C; single binding model
# Details: both partners purified
row,Kd [nM],Binder
1,102,B1

# Target: IMPα1 lacking the IMPβ-binding domain (residues 70-529) (human, UniProt P52292 70-529)
# Assay: as above
# Details: both partners purified
row,Kd [nM],Binder
1,447,B1

# Target: IMPα2 lacking the IMPβ-binding domain (residues 70-529) (UniProt P52293 70-529)
# Assay: as above
# Details: both partners purified
row,Kd [nM],Binder
1,283,B1

# Target: IMPα5 lacking the IMPβ-binding domain (residues 73-538) (human, UniProt P52294 73-538)
# Sequence (P52294 73-538): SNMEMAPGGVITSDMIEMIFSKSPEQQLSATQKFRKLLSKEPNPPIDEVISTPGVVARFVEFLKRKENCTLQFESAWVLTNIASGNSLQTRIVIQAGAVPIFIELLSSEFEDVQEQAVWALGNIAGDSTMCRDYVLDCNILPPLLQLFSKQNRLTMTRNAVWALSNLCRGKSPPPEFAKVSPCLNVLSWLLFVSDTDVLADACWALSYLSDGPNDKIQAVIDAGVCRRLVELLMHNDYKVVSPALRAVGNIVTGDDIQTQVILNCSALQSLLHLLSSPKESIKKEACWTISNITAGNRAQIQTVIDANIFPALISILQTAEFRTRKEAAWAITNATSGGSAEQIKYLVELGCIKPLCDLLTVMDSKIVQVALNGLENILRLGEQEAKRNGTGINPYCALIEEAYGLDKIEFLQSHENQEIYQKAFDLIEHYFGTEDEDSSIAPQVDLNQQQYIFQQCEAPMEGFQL
# Assay: as above
# Details: both partners purified
row,Kd [nM],Binder
1,247,B1

# Target: T1, IMPα3 lacking the IMPβ-binding domain …
# Assay: pull-down; 10 µM His-tagged SOX2 or mutant immobilised on Ni-NTA resin, 20 µM IMPα in 300 µL; washed three times with 50 mM phosphate pH 8.0, 300 mM NaCl, 20 mM imidazole; eluted through TEV cleavage; SDS-PAGE
# Details: both partners purified
row,binding result,Binder
1,binds,B2
2,binds,B3
3,binds,B4
4,binds,B5
5,binds,B6
6,binds,B7
7,binds,B8
8,binds,B9
9,binds,B10
10,binds,B11
11,binds,B12
